Experimental data published in article PMC4967961.

Experiments:
HuRΔIII (ΔRRMIII) [1] = target: T1, HuRΔIII (ΔRRMIII) (UniProt Q15717 1-243); assay: EMSA; EMSA: 20 mM Tris-HCl pH 7.8, 150 mM KCl, 2 mM MgCl2, 0.1% Triton X-100, 0.5 mM DTT, heparin 5 mg/ml, BSA 1 mg/ml, 10% glycerol, on ice 15 min; 6% native PAGE, 0
HuRΔIII (ΔRRMIII) [2] = target: T1, HuRΔIII (ΔRRMIII); assay: displacement from Ago2 miRNPs, HuR IP and qRT-PCR; 300 nM protein, 5 mM Mg2+, 30 C, 60 min; EMSA: 20 mM Tris-HCl pH 7.8, 150 mM KCl, 2 mM MgCl2, 0.1% Triton X-100, 0.5 mM DTT, heparin 5 mg/ml, BSA 1 mg/ml, 10% glycerol, on ice 15 min; 6% native PAGE, 0

T1 sequence (Q15717 1-243, stated change not applied): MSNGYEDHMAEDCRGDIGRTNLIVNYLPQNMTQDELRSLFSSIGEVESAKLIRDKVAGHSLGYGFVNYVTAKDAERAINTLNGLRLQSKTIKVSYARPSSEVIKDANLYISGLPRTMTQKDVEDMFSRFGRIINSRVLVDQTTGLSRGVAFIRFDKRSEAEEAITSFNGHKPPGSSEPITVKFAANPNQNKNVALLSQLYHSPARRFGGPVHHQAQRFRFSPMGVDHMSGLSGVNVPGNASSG

Binder | binding result (HuRΔIII (ΔRRMIII) [1]) | binding signal (HuRΔIII (ΔRRMIII) [2])
AUUAUUUAUUAUUUAUUUAUUAUUUAUUUAUUUA (ssRNA) [TNF-alpha 3'UTR ARE RNA] | binds | 
UGGAGUGUGACAAUGGUGUUUG (ssRNA) [miR-122 from cell-expressed Ago2 miRNPs] |  | ~14 fold reduction vs full-length HuR
